Here are results for seven molecules from publication PMC10511499, “Conserved roles for the dynein intermediate chain and Ndel1 in assembly and activation of dynein” (Nature Communications, 2023).

Sequences and labels used below:
B4: yeast Ndl1 coiled-coil domain (Ndl1^CC, residues 2-132) (domain or fragment, S. cerevisiae, UniProt Q06568 2-132, looked up)
chain: VPNLDLETAIQIISSLETQLSELEGATKEYENDLEQVISKLKSDLLESQQQNKCNKKQITDLEIQVDELENENIQLRNKIETLQLESDRRLERNVLLEHELLDTKEALQKLRVSKEEATSGETRRNTRSLP
notes: Ndl1, S. cerevisiae, coiled-coil domain, residues 2-132; No cleavage of the tags is described; also called StrepII-sfGFP-Ndl1^CC; source: E. coli BL21-CodonPlus (DE3)-RIPL, purified (Strep-tactin XT, SEC)
B6: human Ndel1 coiled-coil domain (Ndel1^CC, residues 1-195) (domain or fragment, UniProt Q9GZM8 1-195, looked up)
chain: MDGEDIPDFSSLKEETAYWKELSLKYKQSFQEARDELVEFQEGSRELEAELEAQLVQAEQRNRDLQADNQRLKYEVEALKEKLEHQYAQSYKQVSVLEDDLSQTRAIKEQLHKYVRELEQANDDLERAKRATIVSLEDFEQRLNQAIERNAFLESELDEKESLLVSVQRLKDEARDLRQELAVRERQQEVTRKSA
notes: Ndel1, human, coiled-coil domain, residues 1-195; also called NudEL^CC; source: E. coli BL21-CodonPlus (DE3)-RIPL, purified (Strep-tactin XT, HiTrap Q, SEC)

For data set [1], the target named is T1, yeast dynein^∆ICN complex (Pac11 lacking its N-terminal 43 residues) (S. cerevisiae, UniProt P36022 1-4092; P40960 44-533; Q04949 1-312; Q02647 1-92, JF503-, JFX549- or JFX646-HaloTag ligand on the HaloTag).
T1 construct: dynein heavy chain Dyn1, S. cerevisiae; dynein intermediate chain Pac11, S. cerevisiae, N-terminal 43 residues deleted; dynein light-intermediate chain Dyn3, S. cerevisiae; dynein light chain Dyn2, S. cerevisiae; also called Pac11^∆ICN dynein; source: S. cerevisiae, all genes overexpressed from GAL1p; purified (IgG sepharose, TEV elution); not shown: 8His (also printed 6xHis), N-terminal, …
The data set is described as follows: TIRF microscopy microtubule recruitment assay; yeast proteins; dynein on taxol-stabilised microtubules held by anti-tubulin antibody; fluorescent partner flowed in, TEV buffer with 1 mM DTT, 5-10 min; intensity along microtubules. Particulars: both partners purified.

Data set [2] deals with T2, yeast dynein complex, wild type (Dyn1, Pac11, Dyn3, Dyn2) (S. cerevisiae, UniProt P36022 1-4092; P40960 1-533; Q04949 1-312; Q02647 1-92, JF503-, JFX549- or JFX646-HaloTag ligand on the HaloTag).
T2 construct: dynein heavy chain Dyn1, S. cerevisiae; dynein intermediate chain Pac11, S. cerevisiae; dynein light-intermediate chain Dyn3, S. cerevisiae; dynein light chain Dyn2, S. cerevisiae; also called WT dynein; HaloTag-Dyn1 complex; source: S. cerevisiae, all genes overexpressed from GAL1p; purified (IgG sepharose, TEV elution); not shown: 8His (also printed 6xHis), N-terminal, cleaved; ZZ, N-terminal, …
The description is as above. Particulars: both partners purified.

For data set [3], the target named is B4. The data set is described as follows: mass photometry; yeast proteins; mixed 1:1 at 50-100 nM each, 1-2 min, measured at 10-20 nM; 50 mM Tris pH 8.0, 150 mM K-acetate. Particulars: both partners purified.
Data set [4] concerns the molecule itself. The data set is described as above.
Data set [5] deals with B6. Description: mass photometry; human proteins; preincubated at 0.5-1 µM for 5 min at room temperature, 1:1 molar ratio, measured at 5-20 nM; 90 mM HEPES-KOH pH 7.4, 50 mM K-acetate. Particulars: both partners purified.
Data set [6] deals with the molecule itself. The description is as above.

As usually defined, the stoichiometry N is the number of molecules, sites or subunits per partner or assembly.

T2 sequence (P36022 whole entry, chain 1 of 4): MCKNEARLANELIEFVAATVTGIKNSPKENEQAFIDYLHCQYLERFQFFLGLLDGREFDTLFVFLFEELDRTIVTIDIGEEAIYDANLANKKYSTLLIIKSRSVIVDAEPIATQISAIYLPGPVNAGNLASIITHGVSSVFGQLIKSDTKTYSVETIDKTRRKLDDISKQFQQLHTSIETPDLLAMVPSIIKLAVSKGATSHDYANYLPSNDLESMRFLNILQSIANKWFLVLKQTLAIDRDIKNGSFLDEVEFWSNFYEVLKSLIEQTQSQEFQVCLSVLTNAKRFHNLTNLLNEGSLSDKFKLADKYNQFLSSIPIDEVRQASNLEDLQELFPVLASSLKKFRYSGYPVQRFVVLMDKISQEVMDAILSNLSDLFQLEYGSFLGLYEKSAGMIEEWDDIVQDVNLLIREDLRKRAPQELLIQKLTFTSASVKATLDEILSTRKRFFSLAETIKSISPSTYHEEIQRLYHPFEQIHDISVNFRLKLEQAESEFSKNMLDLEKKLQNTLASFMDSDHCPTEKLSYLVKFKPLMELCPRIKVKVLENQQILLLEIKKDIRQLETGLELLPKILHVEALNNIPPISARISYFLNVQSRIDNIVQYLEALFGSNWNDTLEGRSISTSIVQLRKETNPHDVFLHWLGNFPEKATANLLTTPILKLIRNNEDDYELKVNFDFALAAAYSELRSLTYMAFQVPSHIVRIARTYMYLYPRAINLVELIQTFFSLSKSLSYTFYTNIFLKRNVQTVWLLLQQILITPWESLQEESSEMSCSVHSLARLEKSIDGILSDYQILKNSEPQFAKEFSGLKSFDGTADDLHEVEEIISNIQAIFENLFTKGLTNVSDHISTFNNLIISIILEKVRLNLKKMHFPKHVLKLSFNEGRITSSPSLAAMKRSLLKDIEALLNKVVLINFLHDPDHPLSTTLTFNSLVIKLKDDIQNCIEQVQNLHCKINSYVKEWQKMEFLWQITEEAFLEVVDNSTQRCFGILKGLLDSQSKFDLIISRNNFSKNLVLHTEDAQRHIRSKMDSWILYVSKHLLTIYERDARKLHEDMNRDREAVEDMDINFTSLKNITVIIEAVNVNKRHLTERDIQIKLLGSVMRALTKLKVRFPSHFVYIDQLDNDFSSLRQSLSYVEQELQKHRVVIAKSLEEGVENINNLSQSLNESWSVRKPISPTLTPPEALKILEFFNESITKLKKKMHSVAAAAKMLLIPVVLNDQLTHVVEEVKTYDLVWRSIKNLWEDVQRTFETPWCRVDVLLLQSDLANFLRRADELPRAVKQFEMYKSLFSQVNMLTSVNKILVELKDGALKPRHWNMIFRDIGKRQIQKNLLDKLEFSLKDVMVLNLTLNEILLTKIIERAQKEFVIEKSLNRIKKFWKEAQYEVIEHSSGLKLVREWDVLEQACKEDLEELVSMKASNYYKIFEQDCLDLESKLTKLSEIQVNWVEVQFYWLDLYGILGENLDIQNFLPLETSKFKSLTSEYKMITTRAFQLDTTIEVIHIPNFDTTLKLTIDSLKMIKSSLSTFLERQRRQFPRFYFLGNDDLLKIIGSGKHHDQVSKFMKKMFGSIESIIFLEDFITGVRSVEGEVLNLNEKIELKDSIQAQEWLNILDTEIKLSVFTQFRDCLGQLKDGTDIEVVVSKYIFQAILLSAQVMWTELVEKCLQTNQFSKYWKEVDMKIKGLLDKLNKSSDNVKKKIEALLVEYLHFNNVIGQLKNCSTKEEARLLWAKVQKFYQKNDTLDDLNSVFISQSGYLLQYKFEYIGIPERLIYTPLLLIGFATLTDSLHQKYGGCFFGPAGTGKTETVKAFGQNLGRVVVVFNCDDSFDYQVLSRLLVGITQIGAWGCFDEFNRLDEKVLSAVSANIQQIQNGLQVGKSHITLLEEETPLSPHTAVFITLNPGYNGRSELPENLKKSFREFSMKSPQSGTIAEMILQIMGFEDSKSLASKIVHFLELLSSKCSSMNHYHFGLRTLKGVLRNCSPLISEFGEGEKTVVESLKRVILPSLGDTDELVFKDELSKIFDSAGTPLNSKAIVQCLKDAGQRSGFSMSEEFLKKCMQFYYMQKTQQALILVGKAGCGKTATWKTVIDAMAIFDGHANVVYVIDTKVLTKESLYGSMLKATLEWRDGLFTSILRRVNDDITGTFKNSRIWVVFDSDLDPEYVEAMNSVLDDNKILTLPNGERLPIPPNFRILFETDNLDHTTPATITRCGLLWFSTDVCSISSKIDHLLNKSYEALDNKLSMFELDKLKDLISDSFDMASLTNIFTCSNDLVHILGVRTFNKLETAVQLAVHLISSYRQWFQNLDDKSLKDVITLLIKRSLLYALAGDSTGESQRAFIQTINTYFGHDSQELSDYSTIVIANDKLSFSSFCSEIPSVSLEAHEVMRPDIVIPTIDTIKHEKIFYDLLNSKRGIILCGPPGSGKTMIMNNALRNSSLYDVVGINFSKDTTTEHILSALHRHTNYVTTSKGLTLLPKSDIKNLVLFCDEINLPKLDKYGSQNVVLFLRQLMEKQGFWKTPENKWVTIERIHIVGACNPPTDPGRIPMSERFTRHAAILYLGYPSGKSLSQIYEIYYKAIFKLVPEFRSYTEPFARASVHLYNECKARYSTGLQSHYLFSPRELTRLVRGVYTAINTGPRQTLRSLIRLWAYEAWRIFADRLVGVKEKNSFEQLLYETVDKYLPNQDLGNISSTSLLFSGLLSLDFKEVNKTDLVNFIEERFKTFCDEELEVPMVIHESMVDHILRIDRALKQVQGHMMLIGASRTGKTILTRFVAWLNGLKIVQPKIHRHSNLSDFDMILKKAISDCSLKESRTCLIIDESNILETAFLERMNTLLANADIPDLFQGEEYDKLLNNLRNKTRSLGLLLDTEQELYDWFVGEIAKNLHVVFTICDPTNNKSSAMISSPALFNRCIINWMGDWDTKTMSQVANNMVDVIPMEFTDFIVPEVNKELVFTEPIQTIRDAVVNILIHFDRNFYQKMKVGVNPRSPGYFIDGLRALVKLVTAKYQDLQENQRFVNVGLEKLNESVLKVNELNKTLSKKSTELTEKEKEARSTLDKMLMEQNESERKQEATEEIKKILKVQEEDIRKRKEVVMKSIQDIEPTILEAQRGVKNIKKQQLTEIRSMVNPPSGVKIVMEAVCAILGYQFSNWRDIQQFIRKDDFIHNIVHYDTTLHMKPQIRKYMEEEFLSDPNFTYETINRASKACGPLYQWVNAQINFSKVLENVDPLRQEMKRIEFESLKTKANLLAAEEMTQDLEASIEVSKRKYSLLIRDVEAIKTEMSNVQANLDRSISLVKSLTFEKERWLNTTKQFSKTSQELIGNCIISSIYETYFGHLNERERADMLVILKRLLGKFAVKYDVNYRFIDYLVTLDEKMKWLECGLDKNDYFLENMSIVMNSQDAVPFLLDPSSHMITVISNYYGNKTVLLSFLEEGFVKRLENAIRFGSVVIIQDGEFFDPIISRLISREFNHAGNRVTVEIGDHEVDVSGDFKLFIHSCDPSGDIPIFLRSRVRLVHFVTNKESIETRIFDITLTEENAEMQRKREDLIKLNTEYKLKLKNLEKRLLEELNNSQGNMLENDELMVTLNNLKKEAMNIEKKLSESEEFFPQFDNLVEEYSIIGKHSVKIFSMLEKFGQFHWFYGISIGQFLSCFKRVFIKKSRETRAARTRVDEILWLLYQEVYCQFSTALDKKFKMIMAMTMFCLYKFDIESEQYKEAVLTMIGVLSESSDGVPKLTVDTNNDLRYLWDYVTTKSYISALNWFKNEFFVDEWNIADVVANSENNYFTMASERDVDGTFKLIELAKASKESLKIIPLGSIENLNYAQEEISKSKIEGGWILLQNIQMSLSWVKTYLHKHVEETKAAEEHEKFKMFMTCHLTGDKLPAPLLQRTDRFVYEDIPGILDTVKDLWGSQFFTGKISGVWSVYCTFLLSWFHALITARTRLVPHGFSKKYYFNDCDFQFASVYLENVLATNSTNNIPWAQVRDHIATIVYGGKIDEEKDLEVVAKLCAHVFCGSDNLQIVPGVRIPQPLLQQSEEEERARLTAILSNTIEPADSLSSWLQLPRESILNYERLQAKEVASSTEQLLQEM
T2 sequence (P40960 whole entry, chain 2 of 4): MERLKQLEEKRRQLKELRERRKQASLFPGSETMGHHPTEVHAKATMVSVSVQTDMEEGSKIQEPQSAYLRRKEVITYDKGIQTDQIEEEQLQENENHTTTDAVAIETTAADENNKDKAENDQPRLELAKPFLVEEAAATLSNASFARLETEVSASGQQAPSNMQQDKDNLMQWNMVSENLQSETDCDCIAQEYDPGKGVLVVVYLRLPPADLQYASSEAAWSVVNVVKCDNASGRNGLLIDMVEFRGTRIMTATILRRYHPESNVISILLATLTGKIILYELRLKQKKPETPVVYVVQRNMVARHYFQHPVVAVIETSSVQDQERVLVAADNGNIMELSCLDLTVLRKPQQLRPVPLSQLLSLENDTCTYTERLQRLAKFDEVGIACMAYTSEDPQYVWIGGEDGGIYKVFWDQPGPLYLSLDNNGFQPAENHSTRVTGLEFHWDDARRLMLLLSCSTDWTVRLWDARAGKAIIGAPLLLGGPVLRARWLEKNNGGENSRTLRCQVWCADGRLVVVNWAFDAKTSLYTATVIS
T2 sequence (Q04949 whole entry, chain 3 of 4): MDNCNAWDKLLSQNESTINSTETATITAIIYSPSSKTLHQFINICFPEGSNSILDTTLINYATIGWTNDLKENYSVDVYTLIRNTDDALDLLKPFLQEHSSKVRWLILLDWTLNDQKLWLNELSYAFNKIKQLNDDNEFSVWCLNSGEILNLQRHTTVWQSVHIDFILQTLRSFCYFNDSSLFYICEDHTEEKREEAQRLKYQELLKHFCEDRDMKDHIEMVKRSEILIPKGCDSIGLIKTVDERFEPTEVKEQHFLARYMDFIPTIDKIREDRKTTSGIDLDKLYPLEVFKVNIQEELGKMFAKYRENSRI
T2 sequence (Q02647 whole entry, chain 4 of 4): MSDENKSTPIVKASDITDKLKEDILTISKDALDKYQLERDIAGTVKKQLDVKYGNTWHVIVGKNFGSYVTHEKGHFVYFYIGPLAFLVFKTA

B1: full-length yeast Pac1 with C-terminal FLAG-SNAPf (natural protein, S. cerevisiae, UniProt P39946 1-494, looked up)
chain: MTNWQQQLPLTDTQKNELDKSVLRYLNWNYKQTVRHEHAQDYESVRHAIVTLSGFLLQESVDRQEFISNNDTSNESMVDIDELLLPKKWNSIVRLQKKIIELEQNTETLVSQIKDLNTQVSELAQFKPTTSNGTSAHNVLKWIPRNLPSCLINVESSVTSVKLHPNLPIVFVATDHGKLYAFDLFNYTIPLASLQSHTKAITSMDVLFTNYTNSSKKNYLVIVTASKDLQIHVFKWVSEECKFQQIRSLLGHEHIVSAVKIWQKNNDVHIASCSRDQTVKIWDFHNGWSLKTFQPHSQWVRSIDVLGDYIISGSHDTTLRLTHWPSGNGLSVGTGHEFPIEKVKFIHFIEDSPEIRFRTPSTDRYKNWGMQYCVSASRDRTIKIWEIPLPTLMAHRAPIPNPTDSNFRCVLTLKGHLSWVRDISIRGQYLFSCADDKSVRCWDLNTGQCLHVWEKLHTGFVNCLDLDVDFDSNVTPRQMMVTGGLDCKSNVFMR
notes: Pac1, yeast homolog of LIS1, full length; also called WT Pac1; Pac1-SNAPf; source: S. cerevisiae, overexpressed from GAL1p; purified (IgG beads, TEV elution); not shown: 8xHis, N-terminal, cleaved; ZZ, N-terminal, cleaved; SNAPf, C-terminal, kept
With B1, the binding result in data set [1] and in data set [2] was “binds” throughout. Moreover, the “stoichiometry N” value worked out at 1 Pac1 dimer per Ndl1 dimer in data set [3] and 2 in data set [4].

B2: full-length yeast Ndl1 with C-terminal FLAG-SNAPf (natural protein, S. cerevisiae, UniProt Q06568 1-189, looked up)
chain: MVPNLDLETAIQIISSLETQLSELEGATKEYENDLEQVISKLKSDLLESQQQNKCNKKQITDLEIQVDELENENIQLRNKIETLQLESDRRLERNVLLEHELLDTKEALQKLRVSKEEATSGETRRNTRSLPSQNKKMKLFKDTIKVSTTSSTLYLQNMAKTNNAARSHCNIPNTQITQSTVIATTSSV
modifications: JFX554-SNAP or JFX650-SNAP ligand on the SNAPf tag
notes: Ndl1, yeast homolog of Ndel1, full length; also called Ndl1-SNAPf; source: S. cerevisiae, overexpressed from GAL1p; purified (IgG beads, TEV elution, SEC); not shown: SNAPf, C-terminal, kept; ZZ, C-terminal, cleaved; 8xHis, C-terminal, cleaved
Consider B2, for which the binding result in data set [2] is “binds”.

B3: LIS1, wild type, as used in mass photometry (construct not told) (natural protein, human, UniProt P43034 1-410, looked up)
chain: MVLSQRQRDELNRAIADYLRSNGYEEAYSVFKKEAELDVNEELDKKYAGLLEKKWTSVIRLQKKVMELESKLNEAKEEFTSGGPLGQKRDPKEWIPRPPEKYALSGHRSPVTRVIFHPVFSVMVSASEDATIKVWDYETGDFERTLKGHTDSVQDISFDHSGKLLASCSADMTIKLWDFQGFECIRTMHGHDHNVSSVAIMPNGDHIVSASRDKTIKMWEVQTGYCVKTFTGHREWVRMVRPNQDGTLIASCSNDQTVRVWVVATKECKAELREHEHVVECISWAPESSYSSISEATGSETKKSGKPGPFLLSGSRDKTIKMWDVSTGMCLMTLVGHDNWVRGVLFHSGGKFILSCADDKTLRVWDYKNKRCMKTLNAHEHFVTSLDFHKTAPYVVTGSVDQTVKVWECR
notes: LIS1, human; also called WT LIS1; source: Sf9 cells, purified
Consider B3, for which the “stoichiometry N” value in data set [5] is 1 LIS1 dimer per Ndel1 dimer.

On to B4, for which the binding result in data set [2] is “binds”. Besides, in data set [4], the “stoichiometry N” value worked out at 2.

B5: yeast Ndl1^CC E64A R78A (domain or fragment, S. cerevisiae, UniProt Q06568 2-132, looked up)
chain: VPNLDLETAIQIISSLETQLSELEGATKEYENDLEQVISKLKSDLLESQQQNKCNKKQITDLAIQVDELENENIQLANKIETLQLESDRRLERNVLLEHELLDTKEALQKLRVSKEEATSGETRRNTRSLP
notes: Ndl1, S. cerevisiae, residues 2-132, E64 and R78 changed to alanines; also called interface 2 mutant of Ndl1^CC; source: E. coli BL21-CodonPlus (DE3)-RIPL, purified
For the molecule B5, the binding result in data set [2] was “binds”.

As for B6, in data set [6], the “stoichiometry N” value was 2.

B7: yeast Nip100 coiled-coil 1 (Nip100^CC1, residues 97-377) with N-terminal eGFP (domain or fragment, S. cerevisiae, UniProt P33420 97-377, looked up)
chain: EHSLLNGNAAQETIKNLQVKCESLASKLNKIKIENHELKTSVEKLSTNETVLLSKISRLDKLVKELKVENGNMKTHLDNFNHLLDASDSVMAPDLDKGTLLERSHLLQGLLDQTKLSYDKAMKVQEDLLEENTQLLEENAVLSKKISDLGLQLQQTNNTIGDLALQIEAQSKSSNIVDKLTNDNILLTSNIKALNNELEELQAKEKLDENLRITYEQLEQELRLQLSNLQSALENEKEIAGTYIEENSRLKATLESIEAKTSHKFQSLELKVNTLQEELYQ
notes: Nip100, yeast homolog of p150^Glued, coiled-coil 1, residues 97-377; also called GST-eGFP-Nip100^CC1; source: E. coli BL21-CodonPlus (DE3)-RIPL, purified (glutathione agarose, Ulp1 digest, SEC); not shown: GST, N-terminal, cleaved; SUMO, N-terminal, cleaved
B7: the binding result in data set [2] is “binds”.
